Assay results: US7378503 (dated 2008)

What was measured:
[1] = target: IGF-IR extracellular domain (human, UniProt P08069); assay: SPR
[2] = target: rat IGF-IR (rat, UniProt P24062); assay: other, immunoprecipitation
[3] = target: mouse IGF-IR (mouse, UniProt Q60751); assay: other, immunoprecipitation
Chain of mouse IGF-IR (Q60751 31-936): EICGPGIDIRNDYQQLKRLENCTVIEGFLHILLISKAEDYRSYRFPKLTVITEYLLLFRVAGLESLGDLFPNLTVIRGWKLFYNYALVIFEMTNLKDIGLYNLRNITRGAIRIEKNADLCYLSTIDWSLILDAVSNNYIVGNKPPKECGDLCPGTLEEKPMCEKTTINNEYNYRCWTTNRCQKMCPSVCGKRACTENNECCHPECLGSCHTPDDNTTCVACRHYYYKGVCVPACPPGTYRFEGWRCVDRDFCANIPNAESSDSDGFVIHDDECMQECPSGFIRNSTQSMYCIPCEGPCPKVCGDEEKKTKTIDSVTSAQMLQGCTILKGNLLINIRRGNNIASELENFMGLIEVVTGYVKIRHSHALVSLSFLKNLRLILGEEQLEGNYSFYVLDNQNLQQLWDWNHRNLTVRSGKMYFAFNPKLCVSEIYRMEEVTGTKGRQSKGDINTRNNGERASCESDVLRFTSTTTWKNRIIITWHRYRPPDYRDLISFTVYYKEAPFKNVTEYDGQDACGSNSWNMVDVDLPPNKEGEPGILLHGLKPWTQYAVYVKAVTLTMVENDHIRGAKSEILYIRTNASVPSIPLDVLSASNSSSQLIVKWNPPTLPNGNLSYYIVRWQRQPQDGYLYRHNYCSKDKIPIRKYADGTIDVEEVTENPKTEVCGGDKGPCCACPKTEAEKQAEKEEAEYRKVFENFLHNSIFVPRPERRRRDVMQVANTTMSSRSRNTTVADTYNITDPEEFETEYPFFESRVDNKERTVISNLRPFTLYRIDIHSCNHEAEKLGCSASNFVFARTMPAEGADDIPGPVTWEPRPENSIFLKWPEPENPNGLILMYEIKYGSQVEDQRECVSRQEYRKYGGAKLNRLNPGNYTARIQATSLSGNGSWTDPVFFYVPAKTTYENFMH

Chain of rat IGF-IR (P24062 31-936): as the sequence (Q60751 31-936) above, with D271G, Y629F, M714L counted along it

Row | Kd [1] | binding result [2] | binding result [3] | Binder
1 | 0.194 nM |  |  | Antibody 23 (antibody, V domains shown) VH: EVQLVQSGGGLVHPGGSLRLSCAGSGFTFSNYAMYWVRQAPGKGLEWVSAIGSGGGTYYADSVKGRFTISRDNAKNSLYLQMNSLRAEDMAVYHCARAPNWGSEAFDIWGQGTMVTVSS VL: DIQMTQSPSSLSASVGDRVTITCRASQGISSWLAWYQQKPEKAPKSLIYAASSLQSGVPSRFSGSGSGTDFTLTISSLQPEDFATYYCQQYNSYPITFGQGTRLEIK
2 | 0.397 nM | no binding | no binding | Antibody 1A (antibody, V domains shown) VH: EVQLVQSGGGLVHPGGSLRLSCAGSGFTFRNYAMYWVRQAPGKGLEWVSAIGSGGGTYYADSVKGRFTISRDNAKNSLYLQMNSLRAEDMAVYYCARAPNWGSDAFDIWGQGTMVTVSS VL: DIQMTQSPSSLSASVGDRVTITCRASQGISSWLAWYQQKPEKAPKSLIYAASSLQSGVPSRFSGSGSGTDFTLTISSLQPEDFATYYCQQYNSYPPTFGPGTKVDIK
3 | 2.01 nM |  |  | Antibody 8 (antibody, V domains shown) VH: EVQLVQSGGGLVHPGGSLRLSCAGSGFTFRSYAMYWVRQAPGKGLEWVSAIGSGGGTYYADSVKGRFTISRDNAKNSLYLQMNSLRAEDMAVYYCARAPNWGSDAFDIWGQGTMVTVSS VL: DIQMTQSPSSLSASVGDRVTITCRASQGISSWLAWYQQKPEKAPKSLIYAASSLQSGVPSRFSGSGSGTDFTLTISSLQPEDFATYYCQQYNSYPPTFGPGTKVDIK
